Data on five molecules can be found in patent US20050208042A1 (GENETICS INSTITUTE, published 2005).

The target of assay [1] is T1, human B7-1 (CD80) expressed on the cell surface (CHO/hB7-1 cells) (human, UniProt P33681 35-288).
T1 construct: whole, on cells; Also used for native B7-1 on human PBL in the MLR; also called rhB7-1
T1 sequence (looked up): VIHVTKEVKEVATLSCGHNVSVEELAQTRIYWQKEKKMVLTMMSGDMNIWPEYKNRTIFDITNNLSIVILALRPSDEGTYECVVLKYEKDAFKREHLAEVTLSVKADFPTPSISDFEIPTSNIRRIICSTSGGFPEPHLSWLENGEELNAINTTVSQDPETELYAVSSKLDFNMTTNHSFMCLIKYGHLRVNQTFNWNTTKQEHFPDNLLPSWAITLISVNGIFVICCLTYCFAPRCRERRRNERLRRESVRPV
As to the kind of experiment: competitive binding against 125I-humanized 1F1 on CHO cells expressing rhB7-1. How it is done:
(§1) The affinity of the mouse and humanized 1F1 antibodies for the B7-1 antigen was determined by competitive binding with radio-iodinated humanized 1F1 antibody. Three-fold serial dilutions of unlabeled mouse or humanized 1F1 antibodies were mixed with a fixed amount of radio-iodinated humanized 1F1 antibody (40,000-50,000 cpm per test) in PBS containing 2% fetal calf serum, 0.1% sodium azide. 3×10⁴ CHO cells expressing cell surface rhB7-1 were added subsequently and the mixture (in a total volume of 200 μL) was incubated for 2 hr at 4° C. with gentle shaking. The cell-antibody suspension was then transferred to Sarstedt Micro Tubes (part #72.702) containing 100 μL of 80% dibutyl phthalate-20% olive oil. After centrifugation in a microfuge, the Sarstedt tubes were plunged into dry ice for several minutes. Cell-bound ¹²⁵I was determined by clipping the tips of each tube (containing cell pellets) into scintillation vials and counting in a gamma counter. Bound and free counts were determined and the ratio plotted against the concentrations of the cold competitor antibodies according to the method of Berzofsky and Berkower (J. A. Berzofsky and I. J. Berkower, in Fundamental Immunology, W. E. Paul, Raven Press, New York, pp. 595-644 (1984)).

Assay [2] concerns the target T1, human B7-1 (CD80) expressed on the cell …. Briefly: competition binding on CHO cells expressing rhB7-1: unlabeled competitor against 125I-humanized 1F1 tracer, bound/free ratio. The method, then: as §1
The target is the same in assay [3]. As to the kind of experiment: 125I direct binding, CHO cells expressing B7-1 as control for non-specific binding. The source says:
(§2) Binding assays were begun by plating cells onto 96-well tissue culture plates at 10,000 CHO/hB7-2 cells per well. Two days later, adherent cells were gently washed with assay buffer containing nonfat dry milk protein (for blocking nonspecific binding) and sodium azide (to prevent internalization of antibodies by cells). For direct binding assays, ¹²⁵I-labeled anti-B7 antibodies (¹²⁵I-murine anti-human B7-2; 826 cpm/fmol; humanized anti-human B7-2, 883 cpm/fmol) were serially diluted in assay buffer and incubated on cells overnight, allowing antibodies to bind to cell-surface B7 and come to equilibrium. Unbound antibody was gently washed from cells, and bound ¹²⁵I-labeled antibody was detected using an ¹²⁵I scintillant and photodetector system. Non-specific binding to CHO cells was determined for each dilution in the same manner, but on cells expressing the B7-1 molecule that is not recognized by the antibody being tested.

Assay [4] addresses T2, human B7-2 (CD86) expressed on the cell surface (CHO/hB7-2 cells) (human, UniProt P42081 24-329).
T2 construct: whole, on cells; Also used for native B7-2 on human PBL in the MLR row under functional; also called rhB7-2
T2 sequence (looked up): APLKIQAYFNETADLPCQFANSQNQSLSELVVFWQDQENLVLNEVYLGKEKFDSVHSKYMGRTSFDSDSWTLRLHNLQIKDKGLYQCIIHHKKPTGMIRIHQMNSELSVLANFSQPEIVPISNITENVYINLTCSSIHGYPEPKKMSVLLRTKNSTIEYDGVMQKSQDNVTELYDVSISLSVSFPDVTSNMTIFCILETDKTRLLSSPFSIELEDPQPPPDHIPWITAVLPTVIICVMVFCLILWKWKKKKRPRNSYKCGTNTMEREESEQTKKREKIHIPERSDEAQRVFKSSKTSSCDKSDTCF
Briefly: direct binding of 125I-labeled antibody to CHO/hB7-2 cells, half-maximal binding.
Excerpt: as §2
The data, means of triplicate wells with nonspecific binding subtracted, were fit to a hyperbolic saturation curve using Graphpad PrismJ software. […] Both murine and humanized anti-B7-2 antibodies recognize cell surface expressed hB7-2 with high affinity.

For assay [5], the target named is T2, human B7-2 (CD86) expressed on the cell …. Briefly: cell-based or functional assay.
Assay [6] concerns the target T3, human B7-2Ig (recombinant soluble hB7-2Ig) (human, UniProt P42081 24-247).
T3 construct: extracellular domain; Secreted by CHO cells, purified on protein A, immobilized on the BIACORE chip; not shown: hinge-CH2-CH3 domains of the human IgG1 heavy chain
T3 sequence (looked up): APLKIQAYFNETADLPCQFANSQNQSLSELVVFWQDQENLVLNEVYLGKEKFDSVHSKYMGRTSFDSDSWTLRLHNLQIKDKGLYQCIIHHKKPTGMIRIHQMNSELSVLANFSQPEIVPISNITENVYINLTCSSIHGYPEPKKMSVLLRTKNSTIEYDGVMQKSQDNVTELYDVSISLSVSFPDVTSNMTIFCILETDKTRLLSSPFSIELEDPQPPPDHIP
Briefly: SPR (BIACORE), hB7-2Ig immobilized, bivalent model, mean of three runs. How it is done: (§3) The BIACORE® biosensor (BIACORE®; Uppsalla, Sweden) was used to determine binding kinetics of murine and humanized anti-B7-2 human antibodies to human B7-2Ig. Hunan B7-2Ig (hB7-2Ig) was immobilized onto the dextran matrix of a BIACORE® sensor chip. Humanized and murine anti-human B7-2 were tested at 200, 100, 50, and 20 nM. Each dilution was tested 4 times per run and a total of three separate runs performed. Anti-human B7-2 antibody binding was measured in real time by Surface Plasmon Resonance (SPR) and global analysis was performed using the bivalent binding model in BIA evaluation software (version 3.1). For each sample, the association (kₐ), dissociation (kd), and equilibrium dissociation constant (KD) were determined.

The target of assay [7] is T2, human B7-2 (CD86) expressed on the cell …. As to the kind of experiment: competitive binding against 125I-murine 3D1 on CHO/hB7-2 cells. How it is done: (§4) The relative affinities, of the murine and humanized 3D1 antibodies for the B7-2 antigen were determined by competitive binding assays. Three-fold serial dilutions of unlabeled humanized or murine 3D1 antibodies were mixed with a fixed amount of radio-iodinated murine 3D1 antibody (40,000-50,000 cpm per test in PBS containing 2% fetal calf serum).
(§5) 1×10⁵ CHO cells expressing cell surface rhB7-2 (CHO/hB7-2) were added subsequently and the mixture (in a total volume of 200 μL) was incubated for 2 hr at 4° C. with gentle shaking. The cell-antibody suspension was then transferred to Sarstedt Micro Tubes (part #72.702) containing 100 μL of 80% dibutyl phthalate-20% olive oil. After centrifugation in a microfuge, the Sarstedt tubes were plunged into dry ice for several minutes. Cell-bound ¹²⁵I was determined by clipping tips of each tube (containing cell pellets) into scintillation vials and counting in a gamma counter. Bound and free counts were determined and the ratio plotted against the concentrations of the cold competitor antibodies according to the method of Berzofsky and Berkower (J. A. Berzofsky and I. J. Berkower, in Fundamental Immunology 9ed. W. E. Paul), Raven Press (New York), 595 (1984)).

For assay [8] the target is unchanged. As to the kind of experiment: competition binding on CHO/hB7-2 cells: unlabeled competitor against 125I-murine 3D1 tracer, bound/free ratio. How it is done:
as §4, §5

In assay [9] the target is T3, human B7-2Ig (recombinant soluble …). As to the kind of experiment: SPR (BIACORE), hB7-2Ig immobilized. How it is done:
as §3

B1: humanized 1F1 antibody, IgG2.M3 form (antibody, V domains shown)
VH: EVQLVQSGAEVKKPGASVKVSCKPSGFNIKDYYMHWVRQAPGQGLEWIGWIDPENGNTLYDPKFQGKATITADTSTSTAYMELSSLRSEDTAVYYCAREGLFFAYWGQGTLVTVSS
VL: DIQMTQSPSSLSASVGDRVTITCSVSSSISSSNLHWYQQKPGKAPKPLIYGTSNLASGVPSRFSGSGSGTDYTLTISSLQPEDVATYYCQQWSSYPLTFGQGTKVEIK
notes: Human gamma 2 constant region variant M3 (Val and Gly at positions 234 and 237 replaced with Ala) and human kappa light chain; also called hu1F1; the IgG2.M3 antibody
In [1], B1 had a Ka of about 1e+09 M⁻¹. For the same molecule, the “IC50 (read off the curve)” value in assay [2] was about 1 nM.

B2: humanized anti-human B7-2 mAb (humanized 3D1), isotype not stated in the example (antibody, V domains shown)
VH: QVQLVQSGAEVKKPGSSVKVSCKASGYTFTDYAIQWVRQAPGQGLEWIGVINIYYDNTNYNQKFKGKATMTVDKSTSTAYMELSSLRSEDTAVYYCARAAWYMDYWGQGTLVTVSS
VL: DIVLTQSPDSLAVSLGERATISCKSSQSLLNSRTRENYLAWYQQKPGQPPKLLIYWASTRESGVPDRFSGSGSGTDFTLTISSLQAEDVAVYYCTQSYNLYTFGQGTKVEIK
notes: Same variable regions; The entries include signal peptides (see the note of m2); also called humanized anti-B7-2; humanized anti-hB7-2
As for B2, the binding result in assay [3] is “no binding”. Moreover, the Kd in [4] was about 1 nM; in [6], 5.1 nM. For the same molecule, the “IC50 of inhibition of CD28+ human T cell proliferation stimulated with PMA and CHO/hB7-2 cells” value in assay [5] amounted to 0.05 nM.

B3: humanized 3D1 antibody, IgG2.M3 form (antibody, V domains shown)
VH: QVQLVQSGAEVKKPGSSVKVSCKASGYTFTDYAIQWVRQAPGQGLEWIGVINIYYDNTNYNQKFKGKATMTVDKSTSTAYMELSSLRSEDTAVYYCARAAWYMDYWGQGTLVTVSS
VL: DIVLTQSPDSLAVSLGERATISCKSSQSLLNSRTRENYLAWYQQKPGQPPKLLIYWASTRESGVPDRFSGSGSGTDFTLTISSLQAEDVAVYYCTQSYNLYTFGQGTKVEIK
notes: Human gamma 2 constant region variant M3 (Val and Gly at positions 234 and 237 replaced with Ala; pVg2.M3 vector) and human kappa light chain; The entries include signal peptides (see the note of m2); also called humanized IgG2.M3 anti-human B7-2; hu3D1
B3: the Ka in assay [7] was about 1e+09 M⁻¹.

B4: humanized 3D1 antibody, IgG4 form (antibody, V domains shown)
VH: QVQLVQSGAEVKKPGSSVKVSCKASGYTFTDYAIQWVRQAPGQGLEWIGVINIYYDNTNYNQKFKGKATMTVDKSTSTAYMELSSLRSEDTAVYYCARAAWYMDYWGQGTLVTVSS
VL: DIVLTQSPDSLAVSLGERATISCKSSQSLLNSRTRENYLAWYQQKPGQPPKLLIYWASTRESGVPDRFSGSGSGTDFTLTISSLQAEDVAVYYCTQSYNLYTFGQGTKVEIK
notes: Human gamma 4 constant region (pVg4 vector) and human kappa light chain (pVk); also called humanized IgG4 anti-human B7-2; hu3D1
For B4, the Ka in [7] was about 1e+09 M⁻¹. Moreover, the “IC50 (read off the curve)” value in assay [8] is about 1 nM.

B5: murine 3D1 monoclonal antibody (murine anti-human B7-2 mAb) (antibody, V domains shown)
VH: QVQLQQSGPELVRPGESVKISCKGSGYTFTDYAIQWVKQSHAKSLEWIGVINIYYDNTNYNQKFKGKATMTVDKSSSTAYMELARLTSEDSAIYYCARAAWYMDYWGQGTSVTVSS
VL: DIVLSQSPSSLAVSAGEKVTMSCKSSQSLLNSRTRENYLAWYQQKPGQSPKLLIYWASTRESGVPDRFTGSGSGTDFTLTISSVQAEDLAVYYCTQSYNLYTFGGGTKLEIK
notes: Hybridoma mouse antibody with kappa light chain; also called HF2.3D1; mouse 3D1
As to B5, the binding result in [3] is recorded as “no binding”. Also, the Kd was about 1 nM in [4] and 1.8 nM in assay [6]. This molecule also showed a Ka in assay [7] of about 1e+09 M⁻¹. The “IC50 of inhibition of CD28+ human T cell proliferation stimulated with PMA and CHO/hB7-2 cells” value in assay [5] is 0.072 nM. The “fold higher affinity than the humanized anti-B7-2 mAb” value in [9] is about 2.8 fold.
